Measured values reported in article PMC4028250, “β1,6 GlcNAc Branches-Modified PTPRT Attenuates Its Activity and Promotes Cell Migration by STAT3 Pathway” (PLoS ONE, 2014).

Target: the molecule itself
Assay: cross-linking; Mock-7721, GnT-V-7721, Mock-HT29 and GnT-V-HT29 cells grown to confluence, cell-surface proteins cross-linked with 3 mM BS3 for 2 hours at 4°C (on ice), stopped with 20 mM Tris-Cl, SDS lysis, immunoblot for PTPRT; dimer and monomer bands quantified with Image J

B1: receptor protein tyrosine phosphatase rho (PTPRT) (receptor, human (endogenous in SMMC-7721 and HT29), UniProt O14522 26-1441, looked up)
chain: QSAAGGCSFDEHYSNCGYSVALGTNGFTWEQINTWEKPMLDQAVPTGSFMMVNSSGRASGQKAHLLLPTLKENDTHCIDFHYYFSSRDRSSPGALNVYVKVNGGPQGNPVWNVSGVVTEGWVKAELAISTFWPHFYQVIFESVSLKGHPGYIAVDEVRVLAHPCRKAPHFLRLQNVEVNVGQNATFQCIAGGKWSQHDKLWLQQWNGRDTALMVTRVVNHRRFSATVSVADTAQRSVSKYRCVIRSDGGSGVSNYAELIVKEPPTPIAPPELLAVGATYLWIKPNANSIIGDGPIILKEVEYRTTTGTWAETHIVDSPNYKLWHLDPDVEYEIRVLLTRPGEGGTGPPGPPLTTRTKCADPVHGPQNVEIVDIRARQLTLQWEPFGYAVTRCHSYNLTVQYQYVFNQQQYEAEEVIQTSSHYTLRGLRPFMTIRLRLLLSNPEGRMESEELVVQTEEDVPGAVPLESIQGGPFEEKIYIQWKPPNETNGVITLYEINYKAVGSLDPSADLSSQRGKVFKLRNETHHLFVGLYPGTTYSFTIKASTAKGFGPPVTTRIATKISAPSMPEYDTDTPLNETDTTITVMLKPAQSRGAPVSVYQLVVKEERLQKSRRAADIIECFSVPVSYRNASSLDSLHYFAAELKPANLPVTQPFTVGDNKTYNGYWNPPLSPLKSYSIYFQALSKANGETKINCVRLATKGASTQNSNTVEPEKQVDNTVKMAGVIAGLLMFIIILLGVMLTIKRRRNAYSYSYYLKLAKKQKETQSGAQREMGPVASADKPTTKLSASRNDEGFSSSSQDVNGFTDGSRGELSQPTLTIQTHPYRTCDPVEMSYPRDQFQPAIRVADLLQHITQMKRGQGYGFKEEYEALPEGQTASWDTAKEDENRNKNRYGNIISYDHSRVRLLVLDGDPHSDYINANYIDGYHRPRHYIATQGPMQETVKDFWRMIWQENSASIVMVTNLVEVGRVKCVRYWPDDTEVYGDIKVTLIETEPLAEYVIRTFTVQKKGYHEIRELRLFHFTSWPDHGVPCYATGLLGFVRQVKFLNPPEAGPIVVHCSAGAGRTGCFIAIDTMLDMAENEGVVDIFNCVRELRAQRVNLVQTEEQYVFVHDAILEACLCGNTAIPVCEFRSLYYNISRLDPQTNSSQIKDEFQTLNIVTPRVRPEDCSIGLLPRNHDKNRSMDVLPLDRCLPFLISVDGESSNYINAALMDSHKQPAAFVVTQHPLPNTVADFWRLVFDYNCSSVVMLNEMDTAQFCMQYWPEKTSGCYGPIQVEFVSADIDEDIIHRIFRICNMARPQDGYRIVQHLQYIGWPAYRDTPPSKRSLLKVVRRLEKWQEQYDGREGRTVVHCLNGGGRSGTFCAICSVCEMIQQQNIIDVFHIVKTLRNNKSNMVETLEQYKFVYEVALEYLSSF
modifications: N-glycans with β1,6 GlcNAc branches (tri- and tetra-antennary), more of them in GnT-V overexpressing cells; sites not mapped
notes: receptor protein tyrosine phosphatase rho (PTPRT), type IIB receptor-like PTP, endogenous in human SMMC-7721 and HT29 cells; One molecule for PTPRT of Mock and of GnT-V overexpressing cells: the two differ only in the amount of β1,6 GlcNAc branches on unmapped N-glycan sites; also called PTPRT (ρ); source: endogenous, SMMC-7721 and HT29 cells stably infected with pCDH-puro (Mock) or …
In the case of B1, the “intensity ratio of dimer to monomer, GnT-V cells against Mock cells” value is reported as about 2 fold and the “stoichiometry N” value is reported as 2.
